Measured values reported in patent publication US20250115681A1 (WESTLAKE UNIVERSITY, published 2025).
Where no end group is shown, it is not given here. [ ]: non-standard residue; d: D form. The star is where a group is joined. Biotin = O=C1N[C@H]2[C@H](CS[C@H]2CCCCC(=O)*)N1

Molecular target: T1, AALPET*G peptide with N-terminal biotinylation
T1 construct: Synthetic sortase substrate peptide
T1 peptide: Biotin-AALPET[2‑hydroxyacetic acid]G
Experiment: western blot of in vitro reaction product bands

B1: mgSrtA (Ca2+-dependent) (enzyme)
chain: KPHIDNYLHDKDKDEKIEQYDKNVKEQASKDKKQQAKPQIPKDKSKVAGYIEIPDADIKEPVYPGPATREQLNRGVSFAEENESLDDQNISIAGHTFIGRPNYQFTNLKAAKKGSMVYFKVGNETRKYKMTSIRNVKPTAVGVLDEQKGKDKQLTLITCDDLNRETGVWETRKILVATEVK
notes: Engineered variant of wild-type sortase A, expressed in E. coli BL21 (DE3) with an N-terminal 6xHis tag; also called Ca^2+-dependent mgSrtA; not shown: N-terminal 6xHis tag from the pET-28a backbone
binding result: binds
